The data set in a line: amyloid nucleation score (Sup35N fusion, yeast selection) (log enrichment); library NNK1; higher = more nucleation; inactive = no reads after selection. The essentials: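 Plasmid inserts were Illumina-sequenced at input and output from psi-negative yeast expressing Sup35N fused to peptides of 20 random codons. The yeast were induced with 100 μM copper sulfate for 24 hours and grown 7 days at 30°C on medium lacking adenine and uracil, and sequences with under 100 input reads were excluded. Nucleation score is the DiMSum log enrichment of output over input reads, centred on the mode score of non-aggregating sequences.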

Results on 141 substances are retold here after the supplement of paper PMC12042874.

± gives the uncertainty stated by the source.

Substance PIYGFCSIALGSMLIIPRLL yielded an amyloid nucleation score of -1.05 ± 0.77.

Take VIITLSRCSRDHTDVMGTFV: the amyloid nucleation score is -0.81 ± 1.4.

Turning to IDVFLNALSVWNVIVDLIIV, the amyloid nucleation score is -0.225 ± 0.42.

For the substance LNRGYAGFSLN, the amyloid nucleation score is -1.86 ± 1.1.

The substance LVPCSWFYLDRSAQDSDCFS yielded an amyloid nucleation score of -0.754 ± 1.1.

Regarding FRIVGSRMFVLLLCYVSSGR, the amyloid nucleation score is 0.241 ± 0.27.

In the case of VTMSDLATHNYREMNSLFSF, the amyloid nucleation score was found to be 0.091 ± 0.28.

Take SIMLADYPIHLVSNTPRMVL: the amyloid nucleation score came out at 0.809 ± 0.82.

Consider RGGRRDWLCIFRGRLGVA, for which the amyloid nucleation score is -1.08 ± 0.78.

Substance SHFLF returned an amyloid nucleation score of 0.93 ± 0.7.

Take IIRLVQNRSIMSFAMGISWV: the amyloid nucleation score was found to be 2.4 ± 0.33.

Consider FSDNRASPESKPQCVTGRRD, for which the amyloid nucleation score was determined as 0.669 ± 0.31.

Take CFPPSNCYLLYKLCVLLRIN: the amyloid nucleation score was -0.134 ± 0.45.

For CMKYMLCARKYFKSYSWLLS, the amyloid nucleation score is 1.04 ± 0.73.

For VIMPGRYVNLAHRLDACSVH, the amyloid nucleation score entry was “inactive”.

DSASL had an amyloid nucleation score of 0.514 ± 0.79.

For SSAFSLRLFDLSLNYFEFDE, the amyloid nucleation score is -0.595 ± 0.68.

With HSGYTYDRRYPCNYDFSIQV, the amyloid nucleation score entry is “inactive”.

VYMRNKEQVNIGHDTVNLSL showed an amyloid nucleation score of 0.58 ± 0.43.

As to RGFWLERCSWTF, the amyloid nucleation score is -0.003 ± 0.37.

Consider LLRWLFCFEWHDSNMSTNII, for which the amyloid nucleation score was -1.76 ± 2.4.

In the case of YLRLFFVRCGHPDSETSYRS, the amyloid nucleation score was found to be 0.418 ± 0.33.

YDASGLWMCKERAEGFMRNV registered an amyloid nucleation score of -0.273 ± 0.95.

Regarding RRYEFKRLGSMSDGVTLRSM, the amyloid nucleation score was -0.759 ± 0.5.

CYLACLLQTHYND registered an amyloid nucleation score of -1.18 ± 2.7.

Substance CHIGSRPLASMKAFPHCDVA gave an amyloid nucleation score of 1 ± 0.57.

The substance RDRDVEFTNDL returned an amyloid nucleation score of 0.614 ± 0.75.

Substance LPFSLFSLD had an amyloid nucleation score of 0.308 ± 0.42.

In the case of NPLHGARFLIGNVFIIRNFK, the amyloid nucleation score was determined as 5.52 ± 0.073.

Consider KRTESKLDYFKVRLCRTRFS, for which the amyloid nucleation score turned out to be 0.122 ± 0.43.

VSPLWSCFTSGVPTDCWSLG had an amyloid nucleation score of 0.275 ± 1.2.

Regarding RFHWACKVYLSNYMV, the amyloid nucleation score was determined as 0.69 ± 0.25.

In turn, SLFQYWDVRDVESTFSVCNC gave an amyloid nucleation score of 6.339 ± 0.047.

WYIVGSFTGITLVVNLALNL: the amyloid nucleation score result was “inactive”.

Turning to VTLSIYVNNSDGISR, the amyloid nucleation score stood at 0.588 ± 0.4.

Take IGILMVACRLHNVSLYLCSG: the amyloid nucleation score is -0.514 ± 0.96.

Take YKDYVDLERAFKLMPGQKLW: the amyloid nucleation score result was “inactive”.

For GCFSPITQWSMWHVWRVRRQ, the amyloid nucleation score was found to be 0.49 ± 0.97.

In turn, VLINYLKMSDTCNFRLFLFK returned an amyloid nucleation score of 5.916 ± 0.055.

The substance IFISIVLLF had an amyloid nucleation score of 4.8 ± 0.079.

As for TVGSIRRNHEVLWGTRILSG, the amyloid nucleation score was -1.69 ± 2.7.

Take VEGLEDGVWR: the amyloid nucleation score came out at 0.876 ± 0.38.

Turning to NTYWVSSAS, the amyloid nucleation score was determined as 0.078 ± 0.64.

TLYCTFSTWYPLYKLQHDRY: the amyloid nucleation score came to 4.55 ± 0.14.

In turn, KSLVNNCDSVIAL came in with an amyloid nucleation score of 0.506 ± 0.25.

With VLKRLRTYVYSIFW, the amyloid nucleation score came out at 0.543 ± 0.33.

CNCMVLSPLDVMEPIAMGFQ showed an amyloid nucleation score of 0.455 ± 1.4.

For TWCCYCFLRVFFEERE, the amyloid nucleation score was -0.298 ± 0.33.

As for LRRLSMA, the amyloid nucleation score result was “inactive”.

The substance YIVAVEHLLCSVRSYGHGMG displayed an amyloid nucleation score of 0.724 ± 0.83.

In the case of GRAYGSVCILRLGC, the amyloid nucleation score is 0.835 ± 0.63.

In turn, VCFALSI registered an amyloid nucleation score of -0.098 ± 0.46.

As to DYPRSIILCWHF, the amyloid nucleation score is -1.39 ± 0.74.

FSEVTLFFPKDAILEFSARC yielded an amyloid nucleation score of -0.353 ± 0.79.

For the substance VELCHIRSLMFLIQHP, the amyloid nucleation score is 1.05 ± 0.21.

WTAHSSL gave an amyloid nucleation score of 1.09 ± 0.76.

The substance KVISFYS returned an amyloid nucleation score of 3.21 ± 0.083.

Consider MGNLATRWFQR, for which the amyloid nucleation score was -0.037 ± 1.4.

For the substance VFLQFVMDDSHGLNK, the amyloid nucleation score result was “inactive”.

HFFNVYGSNMVISSWDSRCE registered an amyloid nucleation score of 6.23 ± 0.076.

VTQFSVWLVLRICGLTLRWY displayed an amyloid nucleation score of 0.31 ± 1.

With VEAPGLSCAIRGWNTVVIRR, the amyloid nucleation score is 0.387 ± 0.49.

Take NKFYCVI: the amyloid nucleation score is -0.927 ± 1.4.

The substance IYRFSCETHIFQYSRQVLFG yielded an amyloid nucleation score of 0.786 ± 0.63.

Regarding CFQLRVGMTDDALWRLMC, the amyloid nucleation score is -0.452 ± 1.9.

In the case of EAVVRRLSEDSCMELSSDCR, the amyloid nucleation score turned out to be 0.485 ± 0.52.

For the substance LCLDKQSSCGSMMSGIYDLM, the amyloid nucleation score was -0.064 ± 0.28.

The substance CRMTGSFKSTCRSKGLASCS gave an amyloid nucleation score of 0.002 ± 0.3.

Consider YDRNRSMPSLLRP, for which the amyloid nucleation score result is “inactive”.

For the substance IHESTWSVKGSWVHQRGPGP, the amyloid nucleation score is 2.56 ± 0.21.

As for YIPICIRSYIKNAS, the amyloid nucleation score is 0.413 ± 1.2.

The substance WFAVWRIRCVRSDVANWMLS returned an amyloid nucleation score of 0.283 ± 0.37.

As to VVSYISPATLRTLKLEKGLS, the amyloid nucleation score was 0.029 ± 0.76.

LHTMCGK showed an amyloid nucleation score of 0.03 ± 0.97.

The substance WHDKVKDFRIRAGHLSYSRG had an amyloid nucleation score of 0.486 ± 0.63.

As for FLMFQGSYIYRNTGFYSSSD, the amyloid nucleation score is -0.176 ± 0.95.

In the case of FNIHCVSSA, the amyloid nucleation score is -0.015 ± 0.47.

GVMYLKRKLRCYMGINYVFH had an amyloid nucleation score of 0.074 ± 0.31.

For YNSTAIHNYENRRDLHQLYL, the amyloid nucleation score stood at 0.139 ± 0.33.

For the substance HSKLFFLWHPWWL, the amyloid nucleation score entry is “inactive”.

With VSLRTISWNMLLNDCWHVKM, the amyloid nucleation score was 0.176 ± 0.72.

Take LFSWVCIFECLPFKNWSQTV: the amyloid nucleation score result is “inactive”.

The substance IFKDLCLTTSGLDIDPNFND came in with an amyloid nucleation score of 0.762 ± 0.51.

In turn, AWLSGVNVVSKSQGCFLWYG gave an amyloid nucleation score of 0.551 ± 0.56.

The substance DKLKLNRVRSSISSYNKQNK displayed an amyloid nucleation score of 1.06 ± 0.28.

With FGLTCRLHKAVFRFYNKRTS, the amyloid nucleation score entry is “inactive”.

Substance YNFERDYLSVYHFAWLIP yielded an amyloid nucleation score of 0.372 ± 0.54.

SCSELGMLERLDMGLTLEVL yielded an amyloid nucleation score of -0.105 ± 0.36.

MELTIAKSEMHVFKGGCVQL gave an amyloid nucleation score of -0.45 ± 0.57.

VHNNCRWFAGKFPLSRVVLR registered an amyloid nucleation score of 0.553 ± 1.2.

Substance THNWNNSYSWSPPDALVSCK came in with an amyloid nucleation score of 0.263 ± 0.51.

The substance PDVVSTSLILGGLNSPELEH came in with an amyloid nucleation score of 0.016 ± 0.6.

VSWHHLVLLKGRLLEVSLSS registered an amyloid nucleation score of -0.158 ± 0.28.

FDRFCFIIIVQYSFHG: the amyloid nucleation score was found to be 1.35 ± 0.76.

As for CRRRMFLQVPRIYFEMRSYA, the amyloid nucleation score was determined as 0.492 ± 0.91.

NHIDGVIGY: the amyloid nucleation score was 0.083 ± 0.61.

Substance WTFTVVFFLKVSSL came in with an amyloid nucleation score of 0.81 ± 0.78.

As for TTCSLVSSAAWMY, the amyloid nucleation score is -0.223 ± 0.39.

For VFNVGYLV, the amyloid nucleation score was -1.21 ± 0.55.

As to YGSSAL, the amyloid nucleation score was -0.419 ± 0.23.

As for SCGSVFF, the amyloid nucleation score is -0.758 ± 2.1.

The substance FIYLVLLSR yielded an amyloid nucleation score of 1.32 ± 0.23.

FYGVRVTGAAFRALVMVSPR had an amyloid nucleation score of 0.616 ± 1.1.

Take NIVFMCMCGLDI: the amyloid nucleation score came to 0.895 ± 0.29.

In the case of RQPANEELPFSVTGK, the amyloid nucleation score was -0.892 ± 0.65.

On to QLLFRRYKMGIVSRYSVITR, for which the amyloid nucleation score is -0.339 ± 0.53.

As for LRMKVINRNPWVKTLSFVLA, the amyloid nucleation score was -0.297 ± 1.1.

EHFMSTCKPPDGE yielded an amyloid nucleation score of 0.927 ± 0.84.

Consider KKPCVTGYRKNRWEELEP, for which the amyloid nucleation score is -0.393 ± 0.42.

On to RLVESRLCASCVDGG, for which the amyloid nucleation score is -0.166 ± 0.46.

Substance LMQSCWSFHYNRLASLLRHT returned an amyloid nucleation score of -0.316 ± 0.88.

For the substance QPFALNRLYHT, the amyloid nucleation score is -0.591 ± 0.62.

The substance SSTLFMKSYIFDPQKLNSPP showed an amyloid nucleation score of 0.375 ± 0.42.

Substance TISKLGQPYRRNSKPL displayed an amyloid nucleation score of -0.378 ± 0.41.

Substance ARHKSENWNYAVDLLSLILS displayed an amyloid nucleation score of 1.59 ± 0.41.

In turn, HIMRDV registered an amyloid nucleation score of -1.13 ± 1.4.

LPAGSDVCLY: the amyloid nucleation score was 3.23 ± 0.13.

With YLFSIVFCNV, the amyloid nucleation score came to 2.67 ± 0.29.

On to GNALYICRF, for which the amyloid nucleation score amounted to 0.572 ± 0.39.

On to GSYFGKGSVK, for which the amyloid nucleation score was 0.563 ± 0.97.

Regarding PNYIRGSIINYILEYSISIN, the amyloid nucleation score was 0.02 ± 0.39.

Substance RLSVVDELLCVLILGFRCYT showed an amyloid nucleation score of 0.372 ± 1.4.

The substance LLRVTEYLIIRPCSVFVINR returned an amyloid nucleation score of -0.459 ± 0.36.

Consider NFLNGLMLTSRVRKFLASGY, for which the amyloid nucleation score is -0.161 ± 0.6.

Regarding SLSRCMIYDYR, the amyloid nucleation score result was “inactive”.

Take NYSYNYLVVKRENTGYSGQV: the amyloid nucleation score came to 0.917 ± 0.42.

VLFLHSS yielded an amyloid nucleation score of 0.355 ± 0.49.

IVDSHVSIATYRLEELRRTL gave an amyloid nucleation score of 2.11 ± 0.27.

As to CVLRMNVFDSKGFWVGYRRD, the amyloid nucleation score came out at 0.602 ± 0.41.

The substance WLNHKRIVINTQLMLYSPGC gave an amyloid nucleation score of 4.68 ± 0.11.

On to MIRQFSVSICSTRSVCVHPR, for which the amyloid nucleation score was -0.135 ± 0.59.

ILKSFLD returned an amyloid nucleation score of -0.071 ± 0.42.

WMDNTSHRFESCEV returned an amyloid nucleation score of 0.635 ± 0.55.

SCGTYFLFICHKSLYWHVHI yielded an amyloid nucleation score of -0.594 ± 0.9.

On to GVTYKPYGVSNW, for which the amyloid nucleation score is -0.616 ± 0.69.

Regarding FWANH, the amyloid nucleation score entry is “inactive”.

The substance MASHGDWGCSNRVFLFPHCR yielded an amyloid nucleation score of -2.08 ± 1.9.

In the case of MMSPLKR, the amyloid nucleation score entry is “inactive”.

Take SYAYKLETNSRFMIQWKVQY: the amyloid nucleation score was found to be 3.48 ± 0.092.

In turn, FVLQKGYK gave an amyloid nucleation score of 0.2 ± 0.59.

Substance SNRCSPDMESDVHSVKELYR gave an amyloid nucleation score of 0.762 ± 0.41.
